What was measured:
[1] = tested on: A549 cells and CCD16 cells; experiment: Clonogenic survival with MDA-7 conditioned medium and radiation; type: cell-based, human; details: 10 ng/ml
Protocol: FIG. 60. Clonogenic survival of A549 cells (A) and CCD16 cells (B). Cells were serum starved for 12 hours and treated with conditioned medium containing mda7 protein (10 ng/ml). Twelve hours later, cells were irradiated, harvested and plated in regular medium. After incubation for 14 days, colonies were counted and survival.
Twelve hours after seeding HUVECs in 4-well plates (Nunc, Roskilde, Denmark), medium was replaced with serum/growth factor-free medium. After serum/growth factor starvation for 12 hours, cells were treated with complete medium containing either MDA-7 protein (10 ng/ml) (removed from cultures of 293 cells), angiostatin (100 ng/ml), or endostatin (100 ng/ml). Twelve hours later, cells were irradiated with ^137CS unit (3.4 Gy/min) at room temperature, trypsinized and counted. Known numbers of cells were replated in 60 mm culture dishes and incubated to allow macroscopic colony development. Colonies were counted after 14 days, and the percent plating efficiency and surviving fractions following given treatments were calculated based on the survival of non-irradiated cells.

[2] = tested on: A375; experiment: Trypan blue viability; type: cell-based, human; details: 40 ng/ml, 3 days
From the text: (§1) rhMDA-7 (IL-24) protein was purified from 293-mda7 cells using affinity chromatography. Various lots of protein ranged from 30% ->80% purity based upon silver stain. The rhMDA-7 protein was applied to melanoma cell lines, and cells assessed for viability using the Trypan blue assay. […] Treatment of melanoma cells with rhMDA-7 results in rapid activation (via phosphorylation) of STAT3. The cytotoxicity observed in melanoma cells is inhibited by anti-MDA-7 antibodies.
(§2) The mechanism of the anti-tumor activity of rhMDA-7 was also evaluated. Melanoma cells were treated with rhMDA-7 protein and assessed for apoptosis using the TUNEL assay. […] These studies were performed with purified rhMDA-7 protein. The melanoma cells have also been treated with supernatant from 293-mda7 cells or control 293 cells. Only the 293-mda7 supernatant causes cell killing.

[3] = tested on: SK-Mel-1; experiment: Trypan blue viability; type: cell-based, human; details: 40 ng/ml, 3 days
From the text: as §1, §2

[4] = tested on: A375.S2; experiment: Trypan blue viability; type: cell-based, human; details: 40 ng/ml, 3 days
From the text: as §1, §2

[5] = tested on: WM793; experiment: Trypan blue viability; type: cell-based, human; details: 40 ng/ml, 3 days
From the text: as §1, §2

[6] = tested on: WM35; experiment: Trypan blue viability; type: cell-based, human; details: 40 ng/ml, 3 days
From the text: as §1, §2

[7] = tested on: MeWo; experiment: Trypan blue viability; type: cell-based, human; details: 40 ng/ml, 3 days
From the text: as §1, §2

[8] = tested on: IRF-1 and IRF-2 in MeWo cells; experiment: Immunoblotting of IRF-1 and IRF-2; type: cell-based, human; details: within 4 h
Protocol: Two×10^6 cultured melanoma cell lines were rinsed twice in ice-cold PBS and lysed in 60 μl of lysis buffer [25 mM Tris, 140 mM NaCl, and 1% NP40 (pH 7.5)] containing 5 mM EDTA, 0.2 mM orthovanadate, 10 mM NaF, leupeptin, aprotinin, and phenylmethylsulfonyl fluoride for 10 min on ice. Equal amounts of total protein (measured with DC Protein Assay Reagent; Bio-Rad Labs, Hercules, Calif.) were loaded on a standard 10% SDS polyacrylamide gel, and fractionated proteins were electroblotted onto a nitrocellulose membrane. Nitrocellulose membranes were blocked for 1 h at room temperature using 5% dry milk in 1× PBS and washed three times for 5 min each in PBS containing 0.05% Tween 20 at room temperature. The membranes were incubated overnight at 4° C. in a sealed bag with a 1:2000 dilution of IRF-1 and IRF-2 polyclonal antibodies in 10 ml of 5% dry milk/0.1% Tween 20 in 1× PBS. The membranes were washed three times for 5 min each in PBS containing 0.05% Tween 20, and then incubated with peroxidase-conjugated antirabbit IgG secondary antibody (Transduction Laboratories) at 1:2000 dilution in PBS with 5% dry milk and 0.1 % Tween 20 for 45 min at room temperature. The blots were visualized using an enhanced chemiluminescence detection kit (Amersham, Arlington Heights, Ill.).

[9] = tested on: PAC1 SMC; experiment: Cell death after recombinant MDA-7; type: cell-based, rat
Protocol: Cell viability was determined using the Trypan-blue exclusion assay. Briefly, total cells (suspension+trypsinized) were mixed 1:1 with Trypan blue solution (Gibco-BRL) and then observed under a hemocytometer via light microscopy. The percent of blue cells (dead cells) were counted (an average count of 3-5 fields were made).
Cells are plated in chamber slides and treated with MDA-7 protein for 60 minutes and then washed thoroughly with PBS (3×). The cells are then fixed with methanol:acetic acid (95:5 vol:vol) and stained with anti-pStat3 monoclonal antibody (1:1000 dilution; Cell Signalling) for 1 h at 4° C. The cells are then washed 3× with PBS and treated with secondary antibody (1:1000 dilution; Texas Red-conjugated-Rabbit anti mouse IgG; Sigma) for 1 h at 4° C. The cells are then washed and examined under fluorescence microscopy.

[10] = tested on: STAT-3; experiment: STAT-3 activation, western blot and immunofluorescence; type: cell-based, human; details: HUVEC; 10 ng/ml; 4 h to 24 h
Protocol: Therefore, studies were conducted to determine the activation of STAT-3 expression in endothelial cells after treatment with sMDA-7. HUVEC were seeded in 6-well plates (5×10^5 cells/well) and treated with sMDA-7 (10 ng/ml). Untreated cells served as negative controls. Cells were harvested at 4 h and 24 h after treatment and analyzed for STAT-3 expression by western blot analysis as previously described (Mhashilkar et al., 2001; Pataer et al., 2002). […] (pSTAT-3) protein was detected using rabbit anti-human pSTAT-3 antibody (1:1000, Cell Signaling Technology, Beverly, Mass.) and horseradish peroxidase-labeled secondary antibody (Amersham Biosciences, Piscataway, N.J.). Finally, the proteins were visualized on enhanced chemiluminescence film (Hyperfilm, Amersham Biosciences, Piscataway, N.J.) by application of Amersham's enhanced chemiluminescence western blotting detection system. STAT-3 protein expression level was quantitated after normalization with total STAT-3 protein expression using Image Quant software (Molecular Dynamics, Amersham Pharmacia Biotech, Piscataway, N.J.).
Activation of STAT-3 was also determined by immunofluorescence assay. […] Pictures were taken through a fluorescence microscope 1-2 h after staining.

[11] = tested on: melanoma cell lines; experiment: Trypan blue viability, melanoma cell lines (panel); type: cell-based, human
From the text: as §1, §2

B1: sMDA-7: soluble secreted human MDA-7 (IL-24) protein purified from stably transfected 293-mda-7 cells (protein)
chain: AQGQEFHFGPCQVKGVVPQKLWEAFWAVKDTMQAQDNITSARLLQQEVLQNVSDAESCYLVHTLLEFYLKTVFKNYHNRTVEVRTLKSFSTLANNFVLIVSQLQPSQENEMFSIRDSAHRRFLLFRRAFKQLDVEAALTKALGEVDILLTWMQKFYKL
radiosensitizing effects [1]: does not produce radiosensitizing effects | % Dead [2]: 26.6% | % Dead [3]: 5.2% | % Dead [4]: 22.2% | % Dead [5]: 5.2% | % Dead [6]: 17.6% | % Dead [7]: 20% | fall in IRF-1 expression [8]: ~4 fold | increase in IRF-2 expression [8]: 4.7 fold | cell death [9]: No statistically significant increase in cell death | increase in pSTAT-3 expression over PBS treated control [10]: 2-3 times | death in melanoma cells ([11]; 0-20 ng/ml, 4 days): dose-dependent death | melanoma lines showing cytotoxicity ([11]; 40 ng/ml for 3 days): 5 of 6

Reference: patent US20060134801A1, “Methods and compositions involving MDA-7” (Board of Regents, The University of Texas System, priority 2003, published 2006)
